In the supplement of paper PMC5998384:

Legend:
HeLa Kyoto [1] = assay: solubility change mitosis vs G1/S (difference of NP-40 vs SDS log2 ratios) (log2 ratio difference); higher = more soluble in mitosis
HeLa Kyoto [2] = assay: solubility in G1/S (NP-40 vs SDS abundance) (log2 ratio); higher = more soluble; conditions: cell cycle stage: G1/S
HeLa Kyoto [3] = assay: thermal stability score vs G1/S (z-score of summed log2 fold changes over temperatures); higher = more thermally stable than in G1/S
HeLa Kyoto [4] = assay: melting temperature (median over replicates), in situ; higher = more thermally stable
[5] = cell cycle stage: early G1 (4.5 h after nocodazole release)
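For melting temperature (median over replicates), in situ in this document: HeLa Kyoto cells synchronized by double thymidine or nocodazole block, proteins quantified by TMT10plex mass spectrometry, three independent biological replicates.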
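For solubility change mitosis vs G1/S (difference of NP-40 vs SDS log2 ratios) in this document: synchronized HeLa Kyoto cells (double thymidine block for G1/S, nocodazole release for mitosis), protein amounts in NP-40 versus SDS lysates quantified by mass spectrometry, three biological replicates.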
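For solubility in G1/S (NP-40 vs SDS abundance) in this document: HeLa Kyoto cells arrested at G1/S by double thymidine block, proteins quantified by TMT10plex mass spectrometry in mild NP-40 versus SDS extracts, three biological replicates.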
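For thermal stability score vs G1/S (z-score of summed log2 fold changes over temperatures) in this document: synchronized HeLa Kyoto cells, proteins quantified by TMT10plex mass spectrometry, three biological replicates, mitosis taken 0.5 h after nocodazole release, G1/S directly after double thymidine block.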

Sequence	solubility change mitosis (log2) (HeLa Kyoto [1])	solubility in G1/S (log2) (HeLa Kyoto [2])	thermal stability score (HeLa Kyoto [3]; [5])	thermal stability score (HeLa Kyoto [3]; cell cycle stage: mitosis)	melting temperature (HeLa Kyoto [4]; cell cycle stage: G1/S)	melting temperature (HeLa Kyoto [4]; cell cycle stage: mitosis)
MEAFQELRKPSARLECDHCSFRGTDYENVQIHMGTIHPEFCDEMDAGGLGKMIFYQKSAKLFHCHKCFFTSKMYSNVYYHITSKHASPDKWNDKPKNQLNKETDPVKSPPLPEHQKIPCNSAEPKSIPALSMETQKLGSVLSPESPKPTPLTPLEPQKPGSVVSPELQTPLPSPEPSKPASVSSPEPPKSVPVCESQKLAPVPSPEPQKPAPVSPESVKATLSNPKPQKQSHFPETLGPPSASSPESPVLAASPEPWGPSPAASPESRKSARTTSPEPRKPSPSESPEPWKPFPAVSPEPRRPAPAVSPGSWKPGPPGSPRPWKSNPSASSGPWKPAKPAPSVSPGPWKPIPSVSPGPWKPTPSVSSASWKSSSVSPSSWKSPPASPESWKSGPPELRKTAPTLSPEHWKAVPPVSPELRKPGPPLSPEIRSPAGSPELRKPSGSPDLWKLSPDQRKTSPASLDFPESQKSSRGGSPDLWKSSFFIEPQKPVFPETRKPGPSGPSESPKAASDIWKPVLSIDTEPRKPALFPEPAKTAPPASPEARKRALFPEPRKHALFPELPKSALFSESQKAVELGDELQIDAIDDQKCDILVQEELLASPKKLLEDTLFPSSKKLKKDNQESSDAELSSSEYIKTDLDAMDIKGQESSSDQEQVDVESIDFSKENKMDMTSPEQSRNVLQFTEEKEAFISEEEIAKYMKRGKGKYYCKICCCRAMKKGAVLHHLVNKHNVHSPYKCTICGKAFLLESLLKNHVAAHGQSLLKCPRCNFESNFPRGFKKHLTHCQSRHNEEANKKLMEALEPPLEEQQI [CHAMP1]	0.221	-0.327	1.41	3.68	48.8 °C	50.3 °C
MEASRRFPEAEALSPEQAAHYLRYVKEAKEATKNGDLEEAFKLFNLAKDIFPNEKVLSRIQKIQEALEELAEQGDDEFTDVCNSGLLLYRELHNQLFEHQKEGIAFLYSLYRDGRKGGILADDMGLGKTVQIIAFLSGMFDASLVNHVLLIMPTNLINTWVKEFIKWTPGMRVKTFHGPSKDERTRNLNRIQQRNGVIITTYQMLINNWQQLSSFRGQEFVWDYVILDEAHKIKTSSTKSAICARAIPASNRLLLTGTPIQNNLQELWSLFDFACQGSLLGTLKTFKMEYENPITRAREKDATPGEKALGFKISENLMAIIKPYFLRRTKEDVQKKKSSNPEARLNEKNPDVDAICEMPSLSRKNDLIIWIRLVPLQEEIYRKFVSLDHIKELLMETRSPLAELGVLKKLCDHPRLLSARACCLLNLGTFSAQDGNEGEDSPDVDHIDQVTDDTLMEESGKMIFLMDLLKRLRDEGHQTLVFSQSRQILNIIERLLKNRHFKTLRIDGTVTHLLEREKRINLFQQNKDYSVFLLTTQVGGVGLTLTAATRVVIFDPSWNPATDAQAVDRVYRIGQKENVVVYRLITCGTVEEKIYRRQVFKDSLIRQTTGEKKNPFRYFSKQELRELFTIEDLQNSVTQLQLQSLHAAQRKSDIKLDEHIAYLQSLGIAGISDHDLMYTCDLSVKEELDVVEESHYIQQRVQKAQFLVEFESQNKEFLMEQQRTRNEGAWLREPVFPSSTKKKCPKLNKPQPQPSPLLSTHHTQEEDISSKMASVVIDDLPKEGEKQDLSSIKVNVTTLQDGKGTGSADSIATLPKGFGSVEELCTNSSLGMEKSFATKNEAVQKETLQEGPKQEALQEDPLESFNYVLSKSTKADIGPNLDQLKDDEILRHCNPWPIISITNESQNAESNVSIIEIADDLSASHSALQDAQASEAKLEEEPSASSPQYACDFNLFLEDSADNRQNFSSQSLEHVEKENSLCGSAPNSRAGFVHSKTCLSWEFSEKDDEPEEVVVKAKIRSKARRIVSDGEDEDDSFKDTSSINPFNTSLFQFSSVKQFDASTPKNDISPPGRFFSSQIPSSVNKSMNSRRSLASRRSLINMVLDHVEDMEERLDDSSEAKGPEDYPEEGVEESSGEASKYTEEDPSGETLSSENKSSWLMTSKPSALAQETSLGAPEPLSGEQLVGSPQDKAAEATNDYETLVKRGKELKECGKIQEALNCLVKALDIKSADPEVMLLTLSLYKQLNNN [ERCC6L]	-0.161	-0.0349	1.6	2.53	49.5 °C	49.1 °C
MEATTAGVGRLEEEALRRKERLKALREKTGRKDKEDGEPKTKHLREEEEEGEKHRELRLRNYVPEDEDLKKRRVPQAKPVAVEEKVKEQLEAAKPEPVIEEVDLANLAPRKPDWDLKRDVAKKLEKLKKRTQRAIAELIRERLKGQEDSLASAVDAATEQKTCDSD [CCDC12]	0.156	0.73	-1.88	-2.79	53.7 °C	53.3 °C
MEAVAVAAAVGVLLLAGAGGAAGDEAREAAAVRALVARLLGPGPAADFSVSVERALAAKPGLDTYSLGGGGAARVRVRGSTGVAAAAGLHRYLRDFCGCHVAWSGSQLRLPRPLPAVPGELTEATPNRYRYYQNVCTQSYSFVWWDWARWEREIDWMALNGINLALAWSGQEAIWQRVYLALGLTQAEINEFFTGPAFLAWGRMGNLHTWDGPLPPSWHIKQLYLQHRVLDQMRSFGMTPVLPAFAGHVPEAVTRVFPQVNVTKMGSWGHFNCSYSCSFLLAPEDPIFPIIGSLFLRELIKEFGTDHIYGADTFNEMQPPSSEPSYLAAATTAVYEAMTAVDTEAVWLLQGWLFQHQPQFWGPAQIRAVLGAVPRGRLLVLDLFAESQPVYTRTASFQGQPFIWCMLHNFGGNHGLFGALEAVNGGPEAARLFPNSTMVGTGMAPEGISQNEVVYSLMAELGWRKDPVPDLAAWVTSFAARRYGVSHPDAGAAWRLLLRSVYNCSGEACRGHNRSPLVRRPSLQMNTSIWYNRSDVFEAWRLLLTSAPSLATSPAFRYDLLDLTRQAVQELVSLYYEEARSAYLSKELASLLRAGGVLAYELLPALDEVLASDSRFLLGSWLEQARAAAVSEAEADFYEQNSRYQLTLWGPEGNILDYANKQLAGLVANYYTPRWRLFLEALVDSVAQGIPFQQHQFDKNVFQLEQAFVLSKQRYPSQPRGDTVDLAKKIFLKYYPRWVAGSW [NAGLU]	-0.238	0.341	-2.49	-1.73	55.7 °C	55.5 °C
